From publication PMC314469, “Protein Interaction Networks by Proteome Peptide Scanning” (PLoS Biology, 2004)

T1: amphyphisin SH3 (AMPH_HUMAN), P49418
T1 chain: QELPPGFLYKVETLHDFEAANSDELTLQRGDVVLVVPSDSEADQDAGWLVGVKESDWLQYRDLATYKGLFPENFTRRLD


What was measured:
[1] = target: T1, amphyphisin SH3 (AMPH_HUMAN), P49418; assay: SPOT array
[2] = target: endophilin SH3 (SH3G2_HUMAN), Q99962; assay: SPOT array

Row | Binder | normalised SPOT signal, Boehringer light units (BLU); mean over the file's lines of this peptide [1] | normalised SPOT signal, Boehringer light units (BLU); mean over the file's lines of this peptide [2]
1 | DAYSFKRPDRSKMN [P13611 342-355] | 543 | 45.4
2 | DAQEIIRPRRSKYF [Q9HCG2 115-128] | 723 | 165
3 | YVDVIKRPLVKNPV [Q9P2Q0 703-716] | 26.4 | 29.7
4 | DEEKPKRPTRRRRK [O94885 688-701] | 23100 | 959
5 | ADAEPGRPKKRAHS [Q9P2P0 592-605] | 120 | 48.3
6 | SRLTLLRPEKDGTA [Q9H7S7 328-341] | 242 | 112
7 | SRLTLLRPKKDGAA [Q9H7S7 172-185] | 199 | 159
8 | YTSKIFRPPRASHS [Q9Y397 160-173] | 1790 | 325
9 | ASLPPPRPQRPAET [Q9UFB1 199-212] | 210 | 81.6
10 | SSKEFNRPDKLKAH [Q9BYN7 579-592] | 132 | 120
11 | YRLPPTRPPASVSP [Q96LR7 16-30] | 150 | 1510
12 | YYQIIKRPMDLSII [Q9BQQ4 1075-1088] | 78.4 | 85.7
13 | DADPLKRPTFKQIV [P10721 908-921] | 39.9 | 19.8
14 | STQGLRRPFGVAVM [Q92608 327-340] | 8.9 | 27.2
15 | DSSKLRRPLKRNRI [Q9NVG6 7-20] | 111 | 167
16 | YQEYLKRPPESPPI [Q9BTL3 26-39] | 34.1 | 42.7
17 | SWGGPWRPPPPGFW [Q8TC90 86-100] | 43.7 | 1290
18 | YYLLPERPPYLDKY [Q9UD05 393-407] | 57.4 | 108
19 | DDSVILRPSKSVKL [Q9Y2R2 666-679] | 119 | 167
20 | DDILINRPAKKHLE [Q9H9F8 116-129] | 7.5 | 127
21 | ASLPPPRPQRPVTK [Q9NQE0 197-210] | 9900 | 5900

Row | Binder | normalised SPOT signal, Boehringer light units (BLU); mean over the file's lines of this peptide [1] | normalised SPOT signal, Boehringer light units (BLU); mean over the file's lines of this peptide [2]
22 | YTVPPARPPPPLTK [O43308 48-62] | 211 | 9170
23 | DDLEIVRPARRRTP [Q15598 3286-3299] | 189 | 67.6
24 | DEARLRRPPRPSSD [Q9Y2H9 828-841] | 2750 | 172
25 | SQPGPAKPPAHRPS [Q9NPM2 248-262] | 39.8 | 176
26 | DEAQLSRPKKSSDR [O60481 257-270] | 51.5 | 76.4
27 | SSGVPGRPPGLEEE [P49810 64-78] | 50.9 | 57.8
28 | YRHGISRPLRPLSS [Q9UBX1 412-425] | 1500 | 867
29 | SRLTLLRPEKDGAA [Q9H7S7 16-29] | 297 | 71.4
30 | STPRPARPPSPTEQ [Q96ML3 75-89] | 324 | 9450
31 | SRNVLRRPFQAQSG [Q12933 37-50] | 31.6 | 112
32 | YSSSLERPRKLRAV [O75042 916-929] | 78.3 | 137
33 | YQRLPRRPGEPREV [Q9UHC9 721-734] | 116 | 143
34 | YQHHPKRPSRQIHK [Q9HCL0 744-757] | 3940 | 432
35 | YSLLFRRPPPSPSP [Q9NZY4 11-24] | 204 | 175
36 | DANRLRRPGGSYPA [Q14767 49-62] | 24.8 | 59.6
37 | YQGGPPRPPMGMRP [O43670 455-469] | 87.9 | 614
38 | YRRRFSRPSRARDI [Q03188 13-26] | 469 | 85.1
39 | DDEPPARPPPPPPA [Q9NQC3 135-149] | 37.6 | 54.3
40 | SVGRPTRPSRGPWR [Q9HBQ8 81-94] | 9540 | 5870
41 | SVRGPLRPPVRSPA [Q96H54 9-23] | 5070 | 5540
42 | YRQQPKRPQKHIQK [Q9NPG4 759-772] | 103 | 183
